Experimental data: patent US20260028409A1 (Bristol-Myers Squibb, published 2026)

B1: mAb 4A19 (antibody, human IgG1, kappa, V domains shown)
VH: QVQLVQSGAEVKKPGASVKVSCKASGYTFTDSEMHWVRQATGQGLEWMGAIQPETGGTAYNQKFKARVTMTRDTSISTAYMELSSLRSEDTAVYYCARRRRNFDYWGQGTLVTVSS
VL: DIVMTQTPLSLSVTPGQPASISCRSSQSLFHSSGNTYLHWYLQKPGQPPQLLIYKVSNRFSGVPDRFSGSGSGTDFTLKISRVEAEDVGVYYCSQSTHVPFTFGQGTKLEIKR
notes: Therapeutic anti-hCCR8 mAb of WO 2021/194942; also called therapeutic anti-CCR8 mAb 4A19; A419
B2: 21C17 mIgG2a (antibody, V domains shown)
VH: VVQLQQSGPVLVKPGASVKMSCAASGYTFTDNYINWVKQRHGKSLEWIGVINPYNGLTAYDQNFKGKATLTVDKSSSTAYMALNSLTSEASAVYYCARRYGGTPVRYFDVWGTGTTVTVSS
VL: DVVLTQTPLTLSVTIGQPASISCKSSQSLLDSSGKTYLNWLLQRPGQSPKRLIYLVSKLDSGVPDRFSGSGSGTDFTLKFSRVEAEDLGVYYCWQATHFPWSFGGGSKLEVKR
notes: Used unlabeled or conjugated to BV421; also called mAb 21C17; 21C17-mG2a
B3: 22B13 mIgG2a (antibody, V domains shown)
VH: B2 VH
VL: DIQMTQTASSLSASLGARVTISCRASQDISNYLNWYQQKPDGTFELLIYYTSRLHSGVPSRFSGSGSGTDYSLTITNLEQEDIATYFCQQGETLPWTFGGGTKLEIKR
notes: also called 22B13-mG2a
B4: 23A14 hIgG1 (antibody, V domains shown)
VH: QVQLVESGGGVVQPGRSLRLSCAVSGLTFSSYAMHWVRQAPGKGLEWVAVISYDGNKKYNADSVKGRFTISRDNSKNTLYLQMNSLRAEDTAVYYCARAEGKGDYWGQGTLVTVSS
VL: EIVLTQSPATLSLSPGERATLSCRASQSVSSYLVWYQQKPGQAPRLLIYDASNRATGIPARFSGSGSGTDFTLTISSLEPEDFAVYYCQQRSNWPRTFGQGTKVEIKR
notes: Tested as hIgG1; also called 23A14-hG1

Assays:
[1] = biological target: T1, human C-C Motif Chemokine Receptor 8 (hCCR8) (human, UniProt P51685 1-355); experiment: % receptor occupancy against 4A19 concentration, flow cytometry on CCR8^+ Tregs in healthy donor whole blood; the other of the two RO formats (direct/total or indirect/total)
T1 construct: also called human CCR8
Protocol: (§1) A head-to-head comparison of the two distinct RO assay formats was performed. Whole blood samples (180 μl) were pre-treated with various concentrations of the therapeutic mAb, mAb 4A19 (WO 2021/194942), mimicking different 4A19 dose treatment levels in subjects in the dose escalation arm of a Phase I clinical study (NCT04895709), and pre-incubated for 1 h at 37° C. Aliquots of the treated samples were transferred to 4° C. for periods of 24, 48 and 72h for specimen stability experiments.
(§2) After pre-incubation, tubes containing background samples were treated with a saturating concentration ([…]) of mAb 4A19, while other tubes (containing free or bound or FMO [fluorescence minus one] samples) were treated with PBS (equal volume as mAb 4A19) for 30 min at room temperature (RT). […]

[2] = biological target: T1, human C-C Motif Chemokine Receptor 8 …; experiment: % receptor occupancy against 4A19 concentration, flow cytometry on CCR8^+ Tregs in healthy donor whole blood; one of the two RO formats (direct/total or indirect/total)
Protocol: as §1, §2

[3] = biological target: T1, human C-C Motif Chemokine Receptor 8 …; experiment: cell-based or functional assay
[4] = biological target: T2, BSA-conjugated peptide corresponding to the N-terminal 35 amino acid residues of hCCR8 (human, two sulfated tyrosine residues (positions not stated for this peptide); conjugated to bovine serum albumin (BSA)); experiment: ELISA, hybridoma supernatant on plate-coated BSA-conjugated sulfated N-terminal peptide (2 ug/ml)
T2 construct: Coated at 2 ug/ml on ELISA plates; also called BSA-conjugated CCR8 N-terminal peptide; sulfated N-terminal peptide of CCR8 conjugated to BSA
Protocol: To broadly characterize the epitopes of confirmed CCR8-specific Abs, hybridoma culture supernatants were screened by ELISA to measure binding to hCCR8 N-terminal peptides. Briefly, a BSA-conjugated peptide corresponding to the N-terminal 35 amino acid residues of hCCR8 (SEQ ID NO: 74; 2 μg/ml) representing the properly sulfated hCCR8 N-terminus was coated onto high-binding 96-well plates (Corning, Corning, NY) overnight at 4° C. Plates were blocked with BSA and washed, then 100 μl of culture supernatant were added for 30-60 min on a plate shaker. After washing, an appropriate anti-Fc secondary Ab conjugated to horseradish peroxidase (HRP) was added and left for 30-60 min. The plates were developed with ABTS or HRP substrate (SurModics, Eden Prairie, MN), and absorbance was measured at 405 or 650 nm on a Sunrise microplate reader (TECAN; Mannedorf, Switzerland).

[5] = biological target: T1, human C-C Motif Chemokine Receptor 8 …; experiment: FACS on hCCR8-overexpressing Raji cells, fluorescent secondary Ab
Protocol: Four of the 6 mAbs bound to the hCCR8-expressing cells with an EC₅₀ below 1 nM (FIG. 2A; see Table 1) whereas no nonspecific binding was observed on the parental Raji cells (FIG. 2B).
FACS was used to evaluate the binding specificity of Abs binding to CCR8. […] Unbound dye was washed away and cells were plated into 96-well round bottom plates at a concentration of 5×10⁵ cells per well in FACS staining buffer (PBS w/o Ca/Mg, 2 mM EDTA, 0.2% BSA). Serial dilutions of mAbs that bind to an epitope other than an N-terminal epitope of CCR8 were added, starting at a concentration of 20 nM, and incubated on ice for 30 min. Unbound Abs were washed off and a detection secondary Ab was added and incubated for 30 min on ice. Additional washes were performed and Ab binding affinities were determined by measuring the fluorescence intensities of the secondary Abs on a LSRFortessa X-20 cytometer (BD Biosciences).

T2 sequence (peptide, as listed by the source): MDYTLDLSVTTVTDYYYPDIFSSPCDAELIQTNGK
T1 sequence (P51685 whole entry): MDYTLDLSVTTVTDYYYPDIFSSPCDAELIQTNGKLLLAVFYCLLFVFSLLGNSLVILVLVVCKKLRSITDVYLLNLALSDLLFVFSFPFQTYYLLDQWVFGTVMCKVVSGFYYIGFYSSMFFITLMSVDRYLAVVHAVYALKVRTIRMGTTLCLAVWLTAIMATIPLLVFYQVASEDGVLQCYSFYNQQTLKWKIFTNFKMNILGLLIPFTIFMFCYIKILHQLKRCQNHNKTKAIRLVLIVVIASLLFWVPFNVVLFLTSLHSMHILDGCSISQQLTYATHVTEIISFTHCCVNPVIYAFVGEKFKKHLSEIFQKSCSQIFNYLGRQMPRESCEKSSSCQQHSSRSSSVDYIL

Row | Binder | EC50 [1] | EC50 [2] | Maximum Depletion (%) of CCR8^+ Tregs Relative to KLH Isotype Control; Endometrial cancer [3] | Maximum Depletion (%) of CCR8^+ Tregs Relative to KLH Isotype Control; Head and neck squamous cell carcinoma [3] | binding result [4] | EC50 [5]
1 | B1 | 0.023 nM | 0.022 nM | 69% | 25% | – | –
2 | B2 | – | – | – | – | no binding | 0.0807 nM
3 | B3 | – | – | – | – | no binding | 0.0815 nM
4 | B4 | – | – | – | – | no binding | 0.112 nM
